Measurements: the supplement of paper PMC10065799, “High-throughput profiling of sequence recognition by tyrosine kinases and SH2 domains using bacterial peptide display” (eLife, 2023)

Key:
Grb2 SH2 = Grb2 SH2 (UniProt P62993); experiment: SH2 binding enrichment of the phosphorylated peptide, bacterial display (enrichment ratio); higher = better substrate or ligand; peptides without Tyr show the background
c-Src SH2 = experiment: as above
SHP2-C SH2 = experiment: as above
EPHB1 = EPHB1 (UniProt P54762); experiment: phosphorylation enrichment, bacterial display (enrichment ratio); higher = better substrate or ligand; peptides without Tyr show the background
Hck = Hck (UniProt P08631); experiment: as above
Hck, sequence (P08631 whole entry, looked up): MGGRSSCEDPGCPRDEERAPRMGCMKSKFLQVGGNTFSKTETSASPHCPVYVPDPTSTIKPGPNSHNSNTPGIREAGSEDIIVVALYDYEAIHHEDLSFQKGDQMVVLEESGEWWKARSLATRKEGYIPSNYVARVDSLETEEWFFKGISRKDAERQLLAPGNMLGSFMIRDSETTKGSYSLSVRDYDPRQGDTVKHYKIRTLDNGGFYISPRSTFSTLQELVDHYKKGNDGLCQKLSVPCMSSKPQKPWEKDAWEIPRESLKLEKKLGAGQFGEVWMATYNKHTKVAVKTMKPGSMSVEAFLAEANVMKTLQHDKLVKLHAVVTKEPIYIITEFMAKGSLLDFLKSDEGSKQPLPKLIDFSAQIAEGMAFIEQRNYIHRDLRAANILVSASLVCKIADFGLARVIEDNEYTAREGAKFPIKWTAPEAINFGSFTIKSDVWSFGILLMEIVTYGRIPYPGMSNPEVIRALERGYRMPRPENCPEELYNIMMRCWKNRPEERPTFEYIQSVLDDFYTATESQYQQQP

Jak2 = Jak2 (UniProt O60674); experiment: as above
FGFR3 = FGFR3 (UniProt P22607); experiment: as above
FGFR3, sequence (P22607 whole entry, looked up): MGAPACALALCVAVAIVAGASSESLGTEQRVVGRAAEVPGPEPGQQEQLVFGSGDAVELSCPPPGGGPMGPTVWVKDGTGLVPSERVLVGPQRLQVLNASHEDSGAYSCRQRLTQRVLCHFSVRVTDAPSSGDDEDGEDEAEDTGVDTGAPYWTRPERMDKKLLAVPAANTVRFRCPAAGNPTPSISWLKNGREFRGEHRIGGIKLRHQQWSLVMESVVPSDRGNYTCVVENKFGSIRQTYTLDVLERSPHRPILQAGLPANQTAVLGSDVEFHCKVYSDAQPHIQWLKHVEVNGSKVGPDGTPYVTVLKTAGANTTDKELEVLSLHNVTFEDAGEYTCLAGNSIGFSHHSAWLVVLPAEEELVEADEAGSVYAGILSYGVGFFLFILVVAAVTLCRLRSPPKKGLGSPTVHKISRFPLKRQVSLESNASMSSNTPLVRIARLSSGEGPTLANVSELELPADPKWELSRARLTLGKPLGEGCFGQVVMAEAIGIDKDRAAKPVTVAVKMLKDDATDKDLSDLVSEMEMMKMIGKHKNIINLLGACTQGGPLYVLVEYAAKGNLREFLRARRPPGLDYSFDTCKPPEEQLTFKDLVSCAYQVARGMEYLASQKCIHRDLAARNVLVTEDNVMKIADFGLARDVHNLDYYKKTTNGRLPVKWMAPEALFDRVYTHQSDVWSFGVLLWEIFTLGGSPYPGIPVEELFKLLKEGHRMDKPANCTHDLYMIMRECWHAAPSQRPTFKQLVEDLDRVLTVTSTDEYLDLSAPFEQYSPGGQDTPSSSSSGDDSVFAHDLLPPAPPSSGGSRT

Fer (mouse) = experiment: as above
EPHB2 = EPHB2 (UniProt P29323); experiment: as above
EPHB2, sequence (P29323 whole entry, looked up): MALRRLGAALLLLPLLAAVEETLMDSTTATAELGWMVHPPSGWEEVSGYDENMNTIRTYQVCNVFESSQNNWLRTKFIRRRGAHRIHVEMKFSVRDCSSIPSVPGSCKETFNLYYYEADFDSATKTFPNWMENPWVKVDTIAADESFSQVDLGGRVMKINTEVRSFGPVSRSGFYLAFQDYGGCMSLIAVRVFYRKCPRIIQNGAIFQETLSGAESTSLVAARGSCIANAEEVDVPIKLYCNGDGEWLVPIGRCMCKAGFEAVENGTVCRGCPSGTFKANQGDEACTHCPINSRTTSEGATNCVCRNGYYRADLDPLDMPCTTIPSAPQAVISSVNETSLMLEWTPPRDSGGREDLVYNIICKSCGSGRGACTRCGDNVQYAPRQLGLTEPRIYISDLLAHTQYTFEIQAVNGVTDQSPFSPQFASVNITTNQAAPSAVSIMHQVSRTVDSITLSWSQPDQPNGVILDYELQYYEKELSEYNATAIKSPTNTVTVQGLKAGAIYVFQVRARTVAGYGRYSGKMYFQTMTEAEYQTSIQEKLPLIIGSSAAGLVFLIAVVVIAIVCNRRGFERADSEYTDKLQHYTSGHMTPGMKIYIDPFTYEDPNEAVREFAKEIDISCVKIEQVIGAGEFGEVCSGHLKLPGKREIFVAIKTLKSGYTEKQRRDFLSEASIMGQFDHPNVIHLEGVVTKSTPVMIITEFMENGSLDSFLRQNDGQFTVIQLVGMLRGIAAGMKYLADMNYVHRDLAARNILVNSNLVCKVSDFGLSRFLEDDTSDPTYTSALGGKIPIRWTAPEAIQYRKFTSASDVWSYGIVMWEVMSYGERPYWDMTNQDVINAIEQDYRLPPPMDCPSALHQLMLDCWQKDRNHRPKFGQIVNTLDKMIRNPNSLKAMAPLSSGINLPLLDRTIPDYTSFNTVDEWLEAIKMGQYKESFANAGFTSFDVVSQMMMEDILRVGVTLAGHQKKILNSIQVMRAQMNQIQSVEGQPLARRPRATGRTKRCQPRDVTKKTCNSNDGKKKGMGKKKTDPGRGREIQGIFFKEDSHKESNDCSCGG

Fyn = Fyn (UniProt P06241); experiment: as above
Fyn, sequence (P06241 whole entry, looked up): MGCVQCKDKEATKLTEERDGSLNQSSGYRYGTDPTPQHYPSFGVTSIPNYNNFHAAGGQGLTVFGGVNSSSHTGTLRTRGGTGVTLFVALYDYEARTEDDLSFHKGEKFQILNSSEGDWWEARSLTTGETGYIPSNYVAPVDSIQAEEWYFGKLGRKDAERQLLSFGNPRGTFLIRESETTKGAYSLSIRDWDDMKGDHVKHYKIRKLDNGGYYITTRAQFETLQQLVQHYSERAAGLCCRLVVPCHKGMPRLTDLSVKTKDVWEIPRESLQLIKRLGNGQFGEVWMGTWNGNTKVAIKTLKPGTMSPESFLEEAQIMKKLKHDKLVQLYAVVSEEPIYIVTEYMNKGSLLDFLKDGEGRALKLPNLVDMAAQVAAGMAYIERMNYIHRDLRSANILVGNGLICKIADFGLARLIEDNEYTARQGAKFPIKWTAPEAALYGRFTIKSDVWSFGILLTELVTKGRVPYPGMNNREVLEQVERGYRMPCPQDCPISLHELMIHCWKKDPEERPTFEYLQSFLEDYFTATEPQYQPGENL

Fes = Fes (UniProt P07332); experiment: as above
Fes, sequence (P07332 whole entry, looked up): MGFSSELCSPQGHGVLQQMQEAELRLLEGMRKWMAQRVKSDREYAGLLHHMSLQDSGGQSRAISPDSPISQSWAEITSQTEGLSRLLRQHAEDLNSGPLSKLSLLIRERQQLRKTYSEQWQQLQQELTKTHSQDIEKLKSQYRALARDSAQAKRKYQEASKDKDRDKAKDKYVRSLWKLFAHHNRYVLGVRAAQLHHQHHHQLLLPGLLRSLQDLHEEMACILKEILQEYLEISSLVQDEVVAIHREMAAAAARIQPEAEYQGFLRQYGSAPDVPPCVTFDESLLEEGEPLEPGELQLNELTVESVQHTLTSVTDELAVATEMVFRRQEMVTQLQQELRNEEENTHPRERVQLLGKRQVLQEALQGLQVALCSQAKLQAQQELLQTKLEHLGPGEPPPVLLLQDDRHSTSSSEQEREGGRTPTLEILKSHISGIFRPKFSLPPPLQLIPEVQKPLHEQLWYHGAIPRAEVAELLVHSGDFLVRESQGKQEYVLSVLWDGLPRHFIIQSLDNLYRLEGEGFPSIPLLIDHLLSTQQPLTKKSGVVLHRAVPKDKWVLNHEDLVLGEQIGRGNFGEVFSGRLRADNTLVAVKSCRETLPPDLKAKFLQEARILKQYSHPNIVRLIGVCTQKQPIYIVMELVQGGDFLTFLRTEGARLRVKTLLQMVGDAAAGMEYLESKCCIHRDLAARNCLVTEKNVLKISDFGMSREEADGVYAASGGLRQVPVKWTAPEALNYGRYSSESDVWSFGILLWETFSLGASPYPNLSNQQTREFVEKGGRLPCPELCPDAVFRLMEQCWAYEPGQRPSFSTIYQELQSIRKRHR

c-Abl (mouse) = experiment: as above
MERTK = MERTK (UniProt Q12866); experiment: as above
MERTK, sequence (Q12866 whole entry, looked up): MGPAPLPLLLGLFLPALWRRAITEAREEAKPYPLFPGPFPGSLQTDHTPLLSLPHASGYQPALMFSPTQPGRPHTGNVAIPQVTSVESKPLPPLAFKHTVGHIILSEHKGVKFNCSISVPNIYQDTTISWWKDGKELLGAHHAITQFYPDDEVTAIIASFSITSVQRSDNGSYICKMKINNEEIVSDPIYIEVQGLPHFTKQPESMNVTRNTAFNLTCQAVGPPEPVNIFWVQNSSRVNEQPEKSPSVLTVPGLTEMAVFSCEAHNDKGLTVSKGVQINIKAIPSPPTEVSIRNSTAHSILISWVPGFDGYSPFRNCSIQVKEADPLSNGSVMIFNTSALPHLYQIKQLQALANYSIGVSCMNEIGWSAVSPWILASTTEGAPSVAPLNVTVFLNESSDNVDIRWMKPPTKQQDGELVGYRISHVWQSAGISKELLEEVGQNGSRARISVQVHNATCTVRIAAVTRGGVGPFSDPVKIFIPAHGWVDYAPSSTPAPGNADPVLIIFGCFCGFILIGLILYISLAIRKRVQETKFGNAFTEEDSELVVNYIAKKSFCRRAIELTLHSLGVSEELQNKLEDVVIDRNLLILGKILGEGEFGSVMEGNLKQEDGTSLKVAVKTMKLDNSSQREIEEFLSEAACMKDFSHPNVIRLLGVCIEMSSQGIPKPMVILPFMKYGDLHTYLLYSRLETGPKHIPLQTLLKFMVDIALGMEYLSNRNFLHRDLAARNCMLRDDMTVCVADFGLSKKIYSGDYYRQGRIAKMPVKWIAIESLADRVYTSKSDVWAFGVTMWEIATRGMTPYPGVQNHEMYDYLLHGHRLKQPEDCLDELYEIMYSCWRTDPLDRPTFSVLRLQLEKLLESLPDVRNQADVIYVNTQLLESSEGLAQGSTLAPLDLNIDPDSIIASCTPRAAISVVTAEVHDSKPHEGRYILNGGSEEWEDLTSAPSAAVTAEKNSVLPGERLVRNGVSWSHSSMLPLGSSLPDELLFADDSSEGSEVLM

c-Src = experiment: as above
FGFR1 = FGFR1 (UniProt P11362); experiment: as above
AncSZ = experiment: as above
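Throughout, for SH2 binding enrichment of the phosphorylated peptide, bacterial display: peptide library displayed on the E. coli surface as eCPX fusions, selected cells deep-sequenced, score is each peptide's frequency after selection divided by its frequency in the input.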
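Throughout, for phosphorylation enrichment, bacterial display: 11-residue human phosphosite peptides and single-mutation variants displayed on the E. coli surface, counted by deep sequencing, each peptide's frequency after selection divided by its frequency in the unselected input library; frequency after pTyr selection over input frequency; kinase dosed for 20-30% of maximal phosphorylation in three min.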

Grb2 SH2, sequence (P62993 whole entry, looked up): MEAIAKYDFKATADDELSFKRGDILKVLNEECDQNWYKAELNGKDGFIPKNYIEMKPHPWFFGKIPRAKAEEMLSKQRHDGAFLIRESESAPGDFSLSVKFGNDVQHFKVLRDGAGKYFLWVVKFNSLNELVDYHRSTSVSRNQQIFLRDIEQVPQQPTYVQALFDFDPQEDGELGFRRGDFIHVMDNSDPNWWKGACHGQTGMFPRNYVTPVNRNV

Sequence | SH2 binding enrichment (Grb2 SH2) | SH2 binding enrichment (c-Src SH2) | SH2 binding enrichment (SHP2-C SH2) | phosphorylation enrichment (EPHB1) | phosphorylation enrichment (Hck) | phosphorylation enrichment (Jak2) | phosphorylation enrichment (FGFR3) | phosphorylation enrichment (Fer (mouse)) | phosphorylation enrichment (EPHB2) | phosphorylation enrichment (Fyn) | phosphorylation enrichment (Fes) | phosphorylation enrichment (c-Abl (mouse)) | phosphorylation enrichment (MERTK) | phosphorylation enrichment (c-Src) | phosphorylation enrichment (FGFR1) | phosphorylation enrichment (AncSZ)
PPGRSYSPYDY [TNS1_Y793] | 0.502 | 3.08 | 1.52 | 1.12 | 1.65 | 1.07 | 0.855 | 1.11 | 1.07 | 2.82 | 1.38 | 0.664 | 0.653 | 3.42 | 0.863 | 1.44
PPLMLYNPTTY [EGFR_Y270] | 1.45 | 0.74 | 1.28 | 1 | 1.01 | 0.625 | 0.498 | 0.613 | 0.718 | 0.633 | 10.3 | 0.541 | 0.472 | 0.645 | 0.43 | 0.518
PPTYRYERGSR [INPPL1_Y663] | 0.613 | 0.426 | 0.363 | 0.302 | 0.533 | 0.286 | 0.419 | 0.22 | 0.442 | 0.449 | 0.616 | 0.61 | 0.465 | 0.39 | 0.56 | 0.509
PQGVGYPPQQQ [EP300_Y2219] | 0.92 | 0.428 | 0.685 | 0.44 | 0.612 | 0.915 | 0.871 | 0.46 | 0.619 | 0.573 | 1.17 | 0.655 | 0.619 | 0.579 | 0.897 | 0.962
PQGVGYPQQQQ [EP300_Y2219_P2221Q] | 0.588 | 0.249 | 0.835 | 0.591 | 0.546 | 0.713 | 0.604 | 0.441 | 0.435 | 0.608 | 0.921 | 0.599 | 0.4 | 0.475 | 0.448 | 0.87
PQQLWYTHKKK [UBTF_Y207_E210K] | 0.592 | 0.515 | 0.702 | 0.774 | 0.821 | 1.07 | 0.589 | 0.598 | 1.14 | 0.52 | 1.14 | 0.981 | 1.22 | 0.7 | 0.888 | 1.14
PRLMLYNPTTY [EGFR_Y270_P266R] | 1.16 | 0.686 | 1.14 | 0.889 | 0.692 | 1.08 | 0.776 | 0.7 | 0.905 | 0.601 | 1.21 | 0.812 | 0.649 | 0.526 | 0.731 | 0.922
PSSNLYFRWLT [CNGA3_Y168_YF] | 1.41 | 0.876 | 1.15 | 0.688 | 1.38 | 3.54 | 1.33 | 1.02 | 0.959 | 0.886 | 1.2 | 0.822 | 4.73 | 1.11 | 1.52 | 1.7
PSSRDYKHNIK [PIGN_Y227] | 0.895 | 0.495 | 0.774 | 0.321 | 0.474 | 0.481 | 0.587 | 0.569 | 0.47 | 0.456 | 0.572 | 0.471 | 0.463 | 0.417 | 0.448 | 0.442
PTTKTYFPHFY [HBA1_Y43_D48Y] | 0.771 | 0.73 | 1.25 | 0.46 | 0.535 | 0.974 | 1.14 | 0.825 | 0.735 | 0.884 | 0.873 | 0.785 | 0.508 | 0.56 | 0.628 | 0.782
PVFIKYLPEWT [PSEN1_Y240_L235P] | 1.28 | 0.606 | 0.884 | 0.64 | 0.519 | 1.62 | 1.04 | 0.759 | 0.715 | 0.447 | 1.68 | 1.07 | 0.475 | 0.626 | 0.515 | 1.45
PVQAASQKVVA [HBB_Y131_Y131S] | 0.623 | 0.432 | 0.712 | 0.592 | 0.426 | 0.398 | 1.55 | 0.414 | 0.414 | 0.445 | 1.36 | 0.571 | 0.396 | 0.469 | 0.477 | 0.482
PVVKLYATDGR [RP1_Y199] | 0.876 | 0.569 | 0.558 | 0.745 | 0.554 | 0.781 | 0.802 | 0.575 | 0.78 | 0.601 | 1.01 | 0.781 | 0.451 | 0.576 | 0.648 | 0.781
QAKRKYQEVSK [FES_Y156_A159V] | 0.957 | 0.616 | 0.448 | 0.231 | 0.373 | 0.227 | 0.37 | 0.233 | 0.443 | 0.365 | 0.257 | 0.326 | 0.311 | 0.193 | 0.424 | 0.463
QDLFLYQTHSE [PKHD1_Y255] | 0.763 | 0.49 | 0.696 | 0.887 | 0.744 | 1.97 | 0.822 | 0.778 | 0.726 | 0.59 | 1.96 | 1.56 | 0.543 | 0.964 | 0.492 | 1.52
QEALEYFMKQI [PIK3CA_Y1038_M1043I] | 0.704 | 0.455 | 0.926 | 0.845 | 0.631 | 1.53 | 0.744 | 0.599 | 0.547 | 0.545 | 1.43 | 1.28 | 0.449 | 0.714 | 0.616 | 1.68
